These are literature values, as cited in PMC12914960, “Repurposing a detrimental antibody epitope as targeted therapeutics for sepsis and rheumatoid arthritis” (Military Medical Research, 2026).

In series [1] the test system is Differentiated human macrophages. To be noted: full-length TN; ref [21]; cited from earlier work. The text has this:
To investigate P2-1’s effect on HMGB1 endocytosis, differentiated human macrophages were exposed to Alexa Fluor 555-labeled HMGB1 under various conditions (Fig. 5d).

The test system of series [2] is human PBMCs. To be noted: TN; ref [21]; cited from earlier work. An excerpt:
To validate these RNA-seq findings, we quantified HMGB1-induced cytokine/chemokine protein levels using cytokine antibody arrays. Consistent with our RNA-seq data, HMGB1 stimulation led to a significant increase in the protein levels of various cytokines (e.g., TNF, IL-6, and IL-10) and chemokines (e.g., CXCL5/ENA-78, CXCL1/GRO-α, CXCL8/IL-8, CCL2/MCP-1, and CCL7/MCP-3) in human PBMCs (Fig. 6b), confirming its potent immunomodulating activities.

The test system of series [3] is Differentiated human macrophages. To be noted: TN; ref [21]; cited from earlier work. An excerpt: Crucially, our findings reveal a striking dichotomy in the biological effects of full-length TN and its derived peptide, P2-1, on HMGB1-mediated detrimental macrophage responses. […] We propose that full-length TN, when complexed with HMGB1, may engage unidentified macrophage surface receptor(s), thereby facilitating receptor-mediated endocytosis of TN/HMGB1 complexes and ...

B1: TN: full-length human tetranectin (protein, UniProt P05452 1-202, looked up)
chain: MELWGAYLLLCLFSLLTQVTTEPPTQKPKKIVNAKKDVVNTKMFEELKSRLDTLAQEVALLKEQQALQTVCLKGTKVHMKCFLAFTQTKTFHEASEDCISRGGTLGTPQTGSENDALYEYLRQSVGNEAEIWLGLNDMAAEGTWVDMTGARIAYKNWETEITAQPDGGKTENCAVLSGAANGKWFDKRCRDQLPYICQFGIV
modifications: full-length
notes: full-length human tetranectin
On to B1, for which the “HMGB1 cellular uptake, in words” value in series [1] is listed as “significantly increased HMGB1 uptake”. For the same molecule, the “HMGB1-induced cytokines/chemokines, in words” value in series [2] was “did not affect HMGB1-induced cytokines (e.g., IL-6) or chemokines (e.g., MCP-1)”. The “HMGB1 endocytosis and macrophage pyroptosis, in words” value in series [3] was “enhances HMGB1 endocytosis and subsequent macrophage pyroptosis”.
